Reference: patent US20150079023A1

Target: CD16 (Fc receptor on NK cells) (human) (UniProt P08637)
Assay: cell-based or functional assay

Chain of UniProt P08637 (P08637 17-254): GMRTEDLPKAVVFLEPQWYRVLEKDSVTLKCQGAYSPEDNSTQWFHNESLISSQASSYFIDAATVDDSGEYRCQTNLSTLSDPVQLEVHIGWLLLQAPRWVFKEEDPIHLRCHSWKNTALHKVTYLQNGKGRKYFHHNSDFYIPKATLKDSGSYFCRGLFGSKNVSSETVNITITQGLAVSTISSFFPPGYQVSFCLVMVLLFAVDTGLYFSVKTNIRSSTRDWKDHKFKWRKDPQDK

- % of CD69+ cells among total NK cells, 7-day CLL PBMC culture, RTX 10 ug/mL (untreated median 35.75%): 65.2%
- median % of proliferating NK cells (CFSE dilution), 7-day CLL culture, antibody alone: 14.8%
- median % of proliferating NK cells (CFSE dilution), 7-day CLL culture, antibody plus IL-15 10 ng/mL (IL-15 alone 42.25%): 53.8%
Substance: rituximab (antibody)
- median % of viable CD19+/CD5+ B leukemic cells compared to untreated, 7 days, antibody alone: 79.5%
- median % of viable CD19+/CD5+ B leukemic cells compared to untreated, 7 days, antibody plus IL-15 10 ng/mL: 50.4%
